test: soluble on expression in E. coli; label from the status in PepcDB or PDB records

Row | Sequence | soluble on expression in E. coli
1 | MGSDKIHHHHHHAEEQVYSESEVSTVLSKLEKEAISEAAAEQYTVVDRKEDAWGMKHLKLEKQTEGVTVDSDNVIIHLDRNGAVTSVTGNPVDQVVKIQSVDAIGEEGVKKIIASDNPETKDLVFLAIDKRVNNEGQLFYKVRVTSSPTGDPVSLVYKVNATDGTIMEKQDLTEHVGSEVTLKNSFQVAFNVPVEKSNTGIALHGTDNTGVYHAVVDGKNNYSIIQAPSLVALNQNAVDAYTHGKFVKTYYEDHFQRHSIDDRGMPILSVVDEQHPDAYDNAFWDGKAMRYGETSTPTGKTYASSLDVVGHEMTHGVTEHTAGLEYLGQSGALNESYSDLMGYIISGASNPEIGADTQSVDRKTGIRNLQTPSKHGQPETMAQYDDRARYKGTPYYDQGGVHYNSGIINRIGYTIIQNLGIEKAQTIFYSSLVNYLTPKAQFSDARDAMLAAAKVQYGDEAASVVSAAFNSAGIGAKEDIQVNQPSESVLVNE | not soluble
2 | MEKKVQIAVYENENFKRVAEIVKKKSIATVCEEALCPNIMECWGSGTATFMIMGSICTRGCRFCYVLKGKPSPLDDEEPKRVAEAVKEMELDYVVITSVDRDDLSDGGAQHFANVVKTVKELNPGIIVEVLTPDFRGNIDAVKKVIDAGVDVFAHNVETVRRLTPIVRDPRASYEQSLNVLKYAENVIKKSSILLGLGETWDEIVETMRDLRSVGVSILVLSQYMRPSRKQLEVKKRYTLEEFKELEEIAYSMGFSAVISLPLARTSYKAKEAYFRAIENAKNHS | not soluble
3 | MMGLLSTIRGKKEPVVGNGIGSAQVGPLNAKTKKLVIQEWPRVLAQCPELFTEIWHKSATRSTSIKLAFGIAENESPMQNAAFLGLSSTIQAFFYKLIITYELNDDQVREACEQLGARHVDFISRGFNSHFWDIFLVCMAEKIDETLSAYIPDEDKRNEMILAWQRVINSIVHQMRNGYSDRRKQQLGGTKGGSNNGF | not soluble
4 | MSVKQEQCLIKVVSYDSNWPVQFEQEAERIKKALGSNCIEIHHIGSTSVPDLVAKPVIDMIPVVLDISKVDGANAAIRALGYEAKGEYGIPFRRYFQKGDNRLTHHAHVFELGNPEIERHLKFRDWMRMHPKDREAYARLKQELARRYSDDITAYCLGKEDFIATIDKKAGFNGLRMVKALTTREWDKVRHFRQFYFFDKAGLSDPYTWTFEHNAHVHFVLFQGSEITGYAHLQLWSHNRAALRIIVIDELKRNHQYGTRFLALCEKWLKSQGYQSLHVESSPDALKFYRNNGYIDMPFDDPDGYEGDPRDTAVGKIL | not soluble
5 | MITFQEFVNYWFEAYAKIAVKQSTQKRYRELLIPAIKAIGTKPLSDIKPLDIQKIYMNLTGKLSDSTILKLHRLLHEIFKHAVMWEYISDNPVKKVLPPSPELEHHHHHH | soluble
6 | MGSDKIHHHHHHMVDDVFGNAIASATFRTHSDSLVVDSLATVDLTASAWPVFDIAASAINYPFLYADRDGTDLGALAVQQFDDVDQRLRTWMRGFVAGEPTDTLSLLKDISLGIASSISYQSREEEGTQAPLTTLDRGWGSCRDFAVLFAEAVRSLGFGARIVSGYLFNPNRALTGSTDSGSTHAWAEVFVPGAGWITLDPTNRSMGGANLIPVAVTRDIAHAVPVSGSFIGGSNGLPVNERGRRSQSNRPGLSGAAVERWIDVAQFSRCRAAPLVLNRPEPLTR | not soluble
7 | MHYSQMRWMFFCLTALLHGSFIVNAAKILVYCPSISKSHVLLCSKYADLLHNAGHDTVLFIPSYSKLLDNYDGAKHAKVWRLHNVTEAYDTKLGTLANVMENSHIGFIDRLTFDADFWIDMCADLLGKLPEMQHIIDYKFDLVIYNEIDPCTPAIVRLFNIPKTVLLSSEAIMDKVAWNLGKPMTTFAES | not soluble
8 | MDNLLIQVTGKKRVVLFSPRDAQYLYLKGTKSEVLNIDNPDLAKYPLFSKARRYECSLEAGDVLFIPALWFHNVISEEFGVGVNIFWKHLPSECYDKTDTYGNKDPTAASRAAQILDRALKTLAELPEEYRDFYARRMVLHIQDKAYSKNSE | not soluble
9 | GRTVVVLGGGISGLAASYHLSRAPCPPKVVLVESSERLGGWIRSVRGPNGAIFELGPRGIRPAGALGARTLLLVSELGLDSEVLPVRGDHPAAQNRFLYVGGALHALPTGLRGLLRPSPPFSKPLFWAGLRELTKPRGKEPDETVHSFAQRRLGPEVASLAMDSLCRGVFAGNSRELSIRSCFPSLFQAEQTHRSILLGLLLGAGRTPQPDSALIRQALAERWSQWSLRGGLEMLPQALETHLTSRGVSVLRGQPVCGLSLQAEGRWKVSLRDSSLEADHVISAIPASVLSELLPAEAAPLARALSAITAVSVAVVNLQYQGAHLPVQGFGHLVPSSEDPGVLGIVYDSVAFPEQDGSPPGLRVTVMLGGSWLQTLEASGCVLSQELFQQRAQEAAATQLGLKEMPSHCLVHLHKNCIPQYTLGHWQKLESARQFLTAHRLPLTLAGASYEGVAVNDCIESGRQAAVSVLGTEPNS | soluble
10 | MIARPTPALGPTPIPRGGGILPRMDRIVIRGAREHNLKNISLELPRGKFIVITGVSGSGKSTLAFDTIYAEGQRRYVESLSSYARQFLGVMDKPEVESIEGLSPAISIDQKTTSHNPRSTVGTVTEIHDYLRLLFARVGQAFCPECGRPIEKQSASEITDRLLKRPPGTRAILMAPLVRGRKGEYRKLFQQLLKEGYARVRVDGVIYLLEEAQGLSLEKYEKHDIDLVIDRVVLKEEERPRIAEAVELALLRGEGLLRVLYPDTGEEELFSEKFACPEHGSVLEELEPRIFSFNSPYGACPACSGLGYRQEFDPELVVNPELSLAEGAILPWSRGRDTGRSYLWDRLRALAEHLGFDLKTPFKDLPEEAKRAVLYGLPEPFEVVFRRGGKETFRVEVRYEGVIPWLEKRYQESDSEGVREALEGFMSLRPCPACGGTRYKREVLSVKVAGRNIAEVSALPVREALAFFQGLEKTLPPFQAQIARPILREIVERLGFLVDVGLDYLTLDRAANTLSGGEAQRIRLATQVGSGLTGVLYVLDEPSIGLHPRDNQRLIRTLKRLRDLGNTLIVVEHDEETMRAADWIVDMGPGAGIHGGEVVAQGTLEDILKSPQSLTGAYLRGEKRIPVPKERRKGNGKWLVLKGARAHNLKNVTLRIPLGRFVAITGPSGSGKSTLVHDVLYAALAQRLMRAKTTPGPYEALEGVEHLDKVIEIDQSPIGRTPRSNPATYTGVFDEIRDLFAKTPEARKRGYGPGRFSFNVKGGRCEACGGDGTVKIEMLFLPDLYVPCEVCKGKRYNKETLEVKLRGKSIADVLDMTVEEALDFFQNVPSIARKLQLMVDVGLGYMKLGQPSPTLSGGEAQRIKLATELGRKATGRTLYILDEPTTGLHFDDVAKLLSVLHRLVDAGNTVVVIEHNLDVVKTADWVIDLGPEGGDRGGEIVAEGTPEEVALTGSPTGAFLARIPEIAARIGVAAD | soluble
11 | SFELPALPYAKDALAPHISAETIEYHYGKHHQTYVTNLNNLIKGTAFEGKSLEEIIRSSEGGVFNNAAEVWNHTFYWNCLAPNAGGEPTGKVAEAIAASFGSFADFKAQFTDAAIKNFGSGWTWLVKNSDGKLAIVSTSNAGTPLTTDATPLLTVDVWEHAYYIDYRNARPGYLEHFWALVNWEFVAKNLAA | soluble
12 | MSLSFFFQSATVSDGELTGADLKDCISNNSLSSNASLPSVQSCRRLRERRVASWAVSFERLLQDPVGVRYFSDFLRKEFSEENILFWQACECFSHVPAHDKKELSYRAREIFSKFLCSKATTPVNIDSQAQLADDILNAPHPDMFKEQQLQIFNLMKFDSYTRFLKSQLYQECVLAEVEGRTLPDSQQVPSSPASKHSISSDHSNVSTPKKLSGKSKSGRSLNEDVGEEDSEKKRRGAFFSWSRSRSTGRSQKKKDHGDHAHDAPHANGGLCRRESQGSVSSAGSLDLSEACRTSALEKDKAAKHCCVHLPDGTSCVVAVKSGFSIKEILSGLCERHGINGAAVDLFLVGGDKPLVLHQDSSILATRDLRLEKRTLFRLDLVPINRSVGLKAKPTKPVTEVLRPVVAKYGLDLGSLLVRLSGEKEPLDLGAPISSLDGQRVILEERDPSRGKVSTDKQKGAPVKQNSAVNSSPRNHLAMGEERTLGKSNSIKIRGENGKSARDPRLSKREESIAKIGKKEYQKINLDEAEEFFELISKAQSNRADDQRGLLRKEDLVLPEFLRLPAGSSELALSSPPPVKGYSKRAVTGHGQEGAAQTEESYSDSPATSPASAQSPCSAYSPGSAHSPGSAHSTPGPPGTTQPGEKPTKPSCVSMVQEGTTQAWRRLSPGMEAGGIQTVEDEQVADLTLMGEGDISSPNSTLLPPPPTPQDTPGPPRPGTSRF | soluble
13 | KESILAVLLYLFEYYFSENADLVRDRDSLQNSLIQVGFSPAEINKAFEWLDALAANRPTLTNPRVNGPVRVLHGPELDKLDVESRGFLLFLEQQGILNTEQRELVLDRAMALDQEELDLDDMKWVVLMVLFNQPGAEAAYAWMETQMFGNEPEQLH | not soluble
14 | MSLFIPKRVIFEKDSLDYEAAKNILNKFKDKKDVEIINITSNKLKQHIPGEDFYAQYREGKKTLVVGTKKSLKFQSCKPSAHYQLPLISGCMGQCEYCYLNTKLGDKPFVKVHVNIDEILSQAQKYIDERLPEITIFEGAATSDPIPVEPYTHSLEKAIVFFGKHENARFRFVTKYNDIDSLLDLEHNGHTEMRFSINTSSVINKYEHATASRDLRIEASIKAAKAGYPIGFLVAPVFIYPNWKEEYHDLLLSLSKNLPRDLKTPVTFEIISHRYTSTAKNIILQVFPESELPMSDEERKFKYGQFGYGKYVYPKENIDEMKQFFIKEIEDLFENKEIKYVIEGHHHHHH | soluble
15 | LDNPFYYLENFRQVLGWIAQRYDDLLDASERRFITEFAGLPMPAQGLLVRMVMRKGVMFRASKLSYAEIGDPHQAVLPLLQQDWVDTSPPLGLSELFQLLRRDELSQCFKAHAVKGPERKHEWLERLQPLYETAQPLEQWHPLLPDAVFGLKIMPLCDRLRLLYFGNLYQEWSEFVLADLGIYRYEKVEFSADSRGINQRDDINVCLQLHACREALETCVELHALAERAIAIECSNPWLNMRRAKLLYRIGQHAERLQDWPLALSVYRQSNYPGARSRQIRVLERNAEYTEAMALVEQAGLAPESDAEVQHLSRGTPRLQRKLGLTAARRPAARVVSRLDVQVTPSPGTSVERLIRLHLEEQQGGEVHYVENTLINSLFGLLCWRAIFAPLPGAFFHPFHSAPSDLYSPDFYQRRAALFDECLLQLESNDYRVTIREHFQSKSGLQSPFVFWGALTPQLLEQALHCLPADHLRLWFRRLLQDIKANRTGMPDLIQFFPEQRGYRMIEVKGPGDRLQDNQLRWLDFCAEHGMPVEVCYVQWA | not soluble
16 | MTGMRKTLKATLAEARAQVEAALKEEGFGILTEIDVAATLKAKLGLEKPPYLILGACNPNLAARALEALPEIGLLLPCNVVLREAEEGVEVLIQDPKEMFRVLPEATQRALAPVAEEARTRLSRALSRL | soluble
17 | MLTIHTKLISAMITQSLKDHPIETCGIIAGLAGSNLPLRLIPMRNVAQSENFFMFDPQQQLQVWKEMSARHEEPVVIYHSHTGSEAYPSRSDVELAAEPQAHYVIIPTCSPHKEEIRSFRIVDQMVIEERVQIVRQYQPELEFQMMVALEHHHHHH | not soluble
18 | MGSDKIHHHHHHLKVIAIGDNVVDLYPADKQMYLGGHAANTAVFAAELGLQAAYIGTFGNDARGDFARRMLVERGVDVQHSLQYVGRNAFTTITGKDGARRKVVGEPPQELRLDPEDIAYINSFDLVYLNSESHADAFLQAITARKVYDFSILDDDKLFKKIAPQIDLAYLSGKARSDDDVEALMRRVAAAGCDRIVCSRGLRGSAALVDGMMSWQQALGVKAVDSLGAGDAYITSFAATLYSSSKPTLDAKVSESLSHAAKFASAQVLLPGSFGHGAPLIS | not soluble

— the DeepSol protein solubility set
